# Reference: the supplement of paper PMC10065799, “High-throughput profiling of sequence recognition by tyrosine kinases and SH2 domains using bacterial peptide display” (eLife, 2023)
# Target: EPHB2 (UniProt P29323)
# Assay: phosphorylation enrichment, bacterial display (enrichment ratio); higher = better substrate or ligand; peptides without Tyr show the background
# 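Note: 11-residue human phosphosite peptides and single-mutation variants displayed on the E. coli surface, counted by deep sequencing, each peptide's frequency after selection divided by its frequency in the unselected input library; frequency after pTyr selection over input frequency; kinase dosed for 20-30% of maximal phosphorylation in three min.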
# EPHB2, sequence (P29323 whole entry, looked up): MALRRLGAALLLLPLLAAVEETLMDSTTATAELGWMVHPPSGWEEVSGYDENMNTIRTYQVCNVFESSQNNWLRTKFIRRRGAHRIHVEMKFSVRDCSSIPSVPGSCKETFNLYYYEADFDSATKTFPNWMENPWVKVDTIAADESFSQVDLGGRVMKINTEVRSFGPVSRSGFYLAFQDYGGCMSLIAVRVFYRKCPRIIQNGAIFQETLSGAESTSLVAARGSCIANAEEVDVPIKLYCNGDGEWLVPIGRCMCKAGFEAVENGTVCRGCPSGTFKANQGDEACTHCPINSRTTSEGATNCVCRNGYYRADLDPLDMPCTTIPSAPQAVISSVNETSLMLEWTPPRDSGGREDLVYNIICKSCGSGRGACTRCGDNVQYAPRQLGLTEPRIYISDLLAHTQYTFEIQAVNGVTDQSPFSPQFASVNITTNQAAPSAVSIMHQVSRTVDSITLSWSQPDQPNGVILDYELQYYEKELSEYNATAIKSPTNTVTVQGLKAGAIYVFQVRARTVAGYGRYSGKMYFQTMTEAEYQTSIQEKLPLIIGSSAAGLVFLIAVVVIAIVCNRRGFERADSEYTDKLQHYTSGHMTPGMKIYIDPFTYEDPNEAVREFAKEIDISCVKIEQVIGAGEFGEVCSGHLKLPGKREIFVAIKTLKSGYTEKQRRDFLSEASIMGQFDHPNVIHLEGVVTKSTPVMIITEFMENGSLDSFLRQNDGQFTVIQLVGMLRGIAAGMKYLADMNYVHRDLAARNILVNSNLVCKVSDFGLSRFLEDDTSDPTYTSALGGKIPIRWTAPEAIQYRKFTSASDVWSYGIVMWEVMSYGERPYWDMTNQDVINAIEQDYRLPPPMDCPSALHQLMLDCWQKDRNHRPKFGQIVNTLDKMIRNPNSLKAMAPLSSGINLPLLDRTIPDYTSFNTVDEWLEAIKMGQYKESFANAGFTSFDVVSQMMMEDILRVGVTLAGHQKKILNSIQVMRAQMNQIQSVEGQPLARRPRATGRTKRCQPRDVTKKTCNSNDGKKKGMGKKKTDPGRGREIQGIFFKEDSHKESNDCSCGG
row,Sequence,phosphorylation enrichment
1,VRFMAYTDETF [F8_Y450],0.612
2,SVVVLYEPPEV [TP53_Y220_P219L],11
3,KKLHEYNTQFQ [PIK3R1_Y452],0.385
4,ALRHFYKLNII [ETV6_Y402_YF],0.535
5,NREGVYRVFAP [TGFBI_Y537_T538R],0.376
6,FQCLRYIKQLG [SAMHD1_Y146_R143C],0.434
7,NACGLYHKMNG [GATA5_Y216],0.447
8,EFFENYIEELK [PARP4_Y218_F215Y_YF],0.669
9,VSLLPYFPAIM [IPO4_Y518_A513V],0.657
10,VMAVAYRLAEQ [HK1_Y461_T457M],0.496
11,VICRRYLVMQR [IL3RA_Y328],0.69
12,SIKDKHVTALF [KCNH2_Y611_Y611H_YF],0.42
13,LDTSQYFRLFN [CPT2_Y217_M214T],0.522
14,AGTILSHAHLD [ASS1_Y291_Y291S],0.459
15,TNRSFYFKPSL [NUP153_Y382_V381F],0.555
16,SSFDTYHLSRE [KIR3DL2_Y253_I252T_YF],0.616
17,APSEFYDGDHD [HDAC3_Y414_N411S],0.55

row,Sequence,phosphorylation enrichment
1,TYAVSYLPDMS [FLNC_Y1602_T1599A],0.785
2,TDGIAYEFRVI,0.603
3,FLQEIYNSNNQ [FGG_Y140_YF],0.602
4,GNLLIYTEFGK [HGD_Y166],1.13
5,QTENKYDSVSG [EIF2AK3_Y565],0.561
6,VVPGSYDRLRV [IFT172_Y260_L257P],1.13
7,RAILDYIASKF [GSTA3_Y74_N73D_YF],0.445
8,VRTGIYHGREP [PIK3CA_Y361_G364R],0.38
9,WDSSGYWTPEE [PAPPA2_Y908_C903W],0.533
10,EWLRRYLKNGK [HLA-C_Y195_E197K],0.578
11,LANNEYFFRVC,0.917
12,FDSPFYRDSLP [TSC1_Y508],0.479
13,HNLYSYPTKYE [MYO3A_Y1396_H1400Y],16.7
14,GTAPSYGNPSS [CD19_Y378],0.362
15,SVTCTGSPALN [TP53_Y126_Y126G],0.487
16,AEPHTYEEPGR [EPHA8_Y616],0.476

# Target: FGFR1 (UniProt P11362)
# Sequence (P11362 whole entry, looked up): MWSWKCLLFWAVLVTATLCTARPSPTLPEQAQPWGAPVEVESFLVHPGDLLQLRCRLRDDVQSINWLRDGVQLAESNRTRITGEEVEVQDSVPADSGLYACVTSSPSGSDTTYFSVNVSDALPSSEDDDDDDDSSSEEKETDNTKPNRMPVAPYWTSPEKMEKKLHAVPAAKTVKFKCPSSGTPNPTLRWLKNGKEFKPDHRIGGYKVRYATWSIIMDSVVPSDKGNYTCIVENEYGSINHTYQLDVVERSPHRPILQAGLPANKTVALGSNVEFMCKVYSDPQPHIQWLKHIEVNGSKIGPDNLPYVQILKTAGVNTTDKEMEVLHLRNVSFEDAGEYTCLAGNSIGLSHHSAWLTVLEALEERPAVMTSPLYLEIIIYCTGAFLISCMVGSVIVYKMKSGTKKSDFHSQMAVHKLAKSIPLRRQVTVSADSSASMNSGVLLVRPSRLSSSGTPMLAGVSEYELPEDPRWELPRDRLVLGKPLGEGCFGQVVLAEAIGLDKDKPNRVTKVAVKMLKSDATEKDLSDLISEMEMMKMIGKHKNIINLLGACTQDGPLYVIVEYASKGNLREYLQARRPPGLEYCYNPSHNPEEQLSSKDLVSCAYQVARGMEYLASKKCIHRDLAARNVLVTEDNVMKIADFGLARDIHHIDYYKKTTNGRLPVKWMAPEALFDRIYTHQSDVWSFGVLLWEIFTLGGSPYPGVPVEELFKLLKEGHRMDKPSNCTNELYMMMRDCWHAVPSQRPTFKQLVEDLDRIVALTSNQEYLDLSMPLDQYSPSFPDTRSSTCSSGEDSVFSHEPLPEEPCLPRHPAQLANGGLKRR
# Assay: as above
row,Sequence,phosphorylation enrichment
1,VRFMAYTDETF [F8_Y450],0.608
2,SVVVLYEPPEV [TP53_Y220_P219L],0.588
3,KKLHEYNTQFQ [PIK3R1_Y452],0.322
4,ALRHFYKLNII [ETV6_Y402_YF],0.462
5,NREGVYRVFAP [TGFBI_Y537_T538R],0.409
6,FQCLRYIKQLG [SAMHD1_Y146_R143C],0.382
7,NACGLYHKMNG [GATA5_Y216],0.581
8,EFFENYIEELK [PARP4_Y218_F215Y_YF],0.488
9,VSLLPYFPAIM [IPO4_Y518_A513V],0.719
10,VMAVAYRLAEQ [HK1_Y461_T457M],0.463
11,VICRRYLVMQR [IL3RA_Y328],0.786
12,SIKDKHVTALF [KCNH2_Y611_Y611H_YF],0.418
13,LDTSQYFRLFN [CPT2_Y217_M214T],1.47
14,AGTILSHAHLD [ASS1_Y291_Y291S],0.364
15,TNRSFYFKPSL [NUP153_Y382_V381F],0.954
16,SSFDTYHLSRE [KIR3DL2_Y253_I252T_YF],0.615
17,APSEFYDGDHD [HDAC3_Y414_N411S],0.78

row,Sequence,phosphorylation enrichment
1,TYAVSYLPDMS [FLNC_Y1602_T1599A],0.428
2,TDGIAYEFRVI,0.507
3,FLQEIYNSNNQ [FGG_Y140_YF],0.65
4,GNLLIYTEFGK [HGD_Y166],0.56
5,QTENKYDSVSG [EIF2AK3_Y565],0.912
6,VVPGSYDRLRV [IFT172_Y260_L257P],0.394
7,RAILDYIASKF [GSTA3_Y74_N73D_YF],0.567
8,VRTGIYHGREP [PIK3CA_Y361_G364R],0.324
9,WDSSGYWTPEE [PAPPA2_Y908_C903W],0.855
10,EWLRRYLKNGK [HLA-C_Y195_E197K],0.507
11,LANNEYFFRVC,1.31
12,FDSPFYRDSLP [TSC1_Y508],0.446
13,HNLYSYPTKYE [MYO3A_Y1396_H1400Y],0.699
14,GTAPSYGNPSS [CD19_Y378],0.38
15,SVTCTGSPALN [TP53_Y126_Y126G],0.422
16,AEPHTYEEPGR [EPHA8_Y616],0.506
